Data reported in patent publication US20060270591A1, “Androgen receptor coregulators” (priority 2002, published 2006).

Columns and labels:
[1] = molecular target: T1, PR (Homo sapiens, UniProt P06401); test: PR transactivation with ARA70 in DU145 cells (Example 3); format: cell-based
T1 construct: expressed in transfected cells; host or cells: DU145, PC-3
T1 sequence (P06401 1-933): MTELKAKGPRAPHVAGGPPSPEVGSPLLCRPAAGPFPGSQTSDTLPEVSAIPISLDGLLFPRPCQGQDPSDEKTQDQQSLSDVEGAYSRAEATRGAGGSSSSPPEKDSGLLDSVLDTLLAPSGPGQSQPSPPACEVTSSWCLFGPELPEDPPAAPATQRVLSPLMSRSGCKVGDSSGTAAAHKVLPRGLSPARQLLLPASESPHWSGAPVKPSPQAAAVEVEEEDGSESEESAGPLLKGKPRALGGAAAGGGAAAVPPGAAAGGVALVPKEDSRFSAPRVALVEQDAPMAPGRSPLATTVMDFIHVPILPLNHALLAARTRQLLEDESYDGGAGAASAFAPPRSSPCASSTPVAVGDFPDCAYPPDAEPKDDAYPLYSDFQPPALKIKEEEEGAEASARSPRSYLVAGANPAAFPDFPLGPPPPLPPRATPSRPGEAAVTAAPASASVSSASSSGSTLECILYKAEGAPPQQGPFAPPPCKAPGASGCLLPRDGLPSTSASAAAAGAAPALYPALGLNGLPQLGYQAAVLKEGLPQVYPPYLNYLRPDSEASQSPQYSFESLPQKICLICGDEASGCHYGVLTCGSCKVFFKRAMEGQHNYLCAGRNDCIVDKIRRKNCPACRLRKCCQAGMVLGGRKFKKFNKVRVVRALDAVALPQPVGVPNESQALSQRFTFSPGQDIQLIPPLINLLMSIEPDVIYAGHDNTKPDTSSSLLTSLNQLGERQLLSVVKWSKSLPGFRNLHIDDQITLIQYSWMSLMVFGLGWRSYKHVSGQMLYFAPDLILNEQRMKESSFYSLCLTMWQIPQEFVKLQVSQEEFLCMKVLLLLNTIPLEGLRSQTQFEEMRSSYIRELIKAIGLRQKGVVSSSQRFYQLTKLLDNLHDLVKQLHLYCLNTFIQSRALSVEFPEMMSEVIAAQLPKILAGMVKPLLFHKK
Procedure: 411. Human prostate cancer DU145 and PC-3 cells were maintained in […] (DMEM) containing penicillin (25 U/ml), streptomycin (25 μg/ml), and 5% fetal calf serum (FCS). Human LNCaP cells were maintained in RPMI containing penicillin (25 U/ml), streptomycin (25 μg/ml), and 10% FCS. Transfections were performed using the calcium phosphate precipitation method, as previously described (Dynlacht et al. (1991) Cell 66, 563-576). Briefly, 4×10^5 cells were plated on 60-mm dishes 24 hours before transfection, and the medium was changed to DMEM with 5% charcoal-dextran stripped FCS (CS-FBS) one hour before transfection. Transfection medium contained a constant amount of reporter plasmid and indicated amounts of pSG5-receptor, ARA70, or pCMX-GAL fusion construct using pSG5 as a carrier to provide equal amounts of transfected DNA. Twenty-four hours after transfection, the medium was changed again, and the cells were treated with DHT or other treatments. After another 24 hours, the cells were harvested for chloramphenicol transferase (CAT) or luciferase assays. At least three independent experiments were carried out in each case. Superfect (Qiagen) was used for transfection in LNCaP cells. The transfection conditions followed the manufacturer's protocol. […]

[2] = molecular target: T2, GR (Homo sapiens, UniProt P04150); test: GR transactivation reporter assay with SV; format: cell-based; set-up: expressed in transfected cells; host or cells: DU145, PC-3, HepG2; details: MMTV-Luc; compared to AR
T2 sequence (P04150 1-777): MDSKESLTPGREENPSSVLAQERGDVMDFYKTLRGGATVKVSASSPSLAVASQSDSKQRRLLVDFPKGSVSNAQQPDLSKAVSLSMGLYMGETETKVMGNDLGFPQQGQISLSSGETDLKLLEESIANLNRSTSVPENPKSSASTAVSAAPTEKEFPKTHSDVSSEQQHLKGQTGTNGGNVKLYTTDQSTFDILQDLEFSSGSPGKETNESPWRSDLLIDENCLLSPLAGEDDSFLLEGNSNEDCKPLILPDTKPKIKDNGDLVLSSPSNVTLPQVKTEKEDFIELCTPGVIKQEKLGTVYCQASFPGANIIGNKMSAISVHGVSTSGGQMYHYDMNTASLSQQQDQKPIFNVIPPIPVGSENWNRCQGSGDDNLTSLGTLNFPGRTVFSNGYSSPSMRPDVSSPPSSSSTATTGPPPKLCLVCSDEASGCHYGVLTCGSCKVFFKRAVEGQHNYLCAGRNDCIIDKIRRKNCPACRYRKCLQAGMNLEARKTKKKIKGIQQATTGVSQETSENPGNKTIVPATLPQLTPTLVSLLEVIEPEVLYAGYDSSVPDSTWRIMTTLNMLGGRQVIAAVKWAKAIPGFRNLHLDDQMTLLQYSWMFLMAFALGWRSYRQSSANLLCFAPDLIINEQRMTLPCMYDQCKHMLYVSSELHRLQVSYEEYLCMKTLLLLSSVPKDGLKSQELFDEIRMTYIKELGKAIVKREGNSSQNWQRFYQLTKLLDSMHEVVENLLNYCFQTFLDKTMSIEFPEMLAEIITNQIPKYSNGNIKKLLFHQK
Procedure: 42. […] (A) The interaction of SV with AR, GR, PPAR-γ and ER-α is tested in mammalian two-hybrid assay. One μg plasmids expressing Gal4(DBD)-AR, GR, PPAR-γ or ER-α was co-transfected with 4 μg plasmids expressing VP16 or VP16-SVn to COS-1 cells. […] The assay method was the same as described in FIG. 29. Relative activities of ligand treatment to EtOH treatment are shown. (B) The coactivation function of SV in different receptors was assayed using reporter gene study. MMTV-Luc, PPRE-Luc, ERE-Luc are the reporter genes for AR, GR, PPAR-γ, and ER-α respectively. Lanes 1, 5, 9 and 13 are regarded as 1 fold in each panel.
475. In AR transactivation activity assays, transfections were performed using SuperFect (Qiagen, Chatsworth, Calif.) following protocols described in manual provided by Qiagen. Briefly, cells were plated on 35 mm dishes and after 24 h were transfected using the SuperFect kit. The total DNA amount was adjusted to 2 μg with pSG5 or pEGFP vectors. The medium was changed to DMEM with 10% CD-FBS 2 h after transfection. After 24 h, the DMEM with 10% CD-FBS was changed again, and the cells were treated with various steroids. Cells were harvested after 24 h for dual-luciferase assay as described in protocol provided by Promega. At least three independent experiments were carried out in each case.

Row | enhancement of PR transactivation [1] | effect on the transactivation of GR [2] | Substance
1 | 2-3 fold | – | ARA70: ligand-enhanced AR coregulator, full length ARA70
2 | – | less enhancement effect | SV: supervillin, 205 kDa actin binding protein; bovine SV (a.a. 1-1792) used in reporter assays
